The assay concerns the target gastrin-releasing peptide receptor (human) (UniProt P30550).

gastrin-releasing peptide receptor (human), sequence (P30550 whole entry): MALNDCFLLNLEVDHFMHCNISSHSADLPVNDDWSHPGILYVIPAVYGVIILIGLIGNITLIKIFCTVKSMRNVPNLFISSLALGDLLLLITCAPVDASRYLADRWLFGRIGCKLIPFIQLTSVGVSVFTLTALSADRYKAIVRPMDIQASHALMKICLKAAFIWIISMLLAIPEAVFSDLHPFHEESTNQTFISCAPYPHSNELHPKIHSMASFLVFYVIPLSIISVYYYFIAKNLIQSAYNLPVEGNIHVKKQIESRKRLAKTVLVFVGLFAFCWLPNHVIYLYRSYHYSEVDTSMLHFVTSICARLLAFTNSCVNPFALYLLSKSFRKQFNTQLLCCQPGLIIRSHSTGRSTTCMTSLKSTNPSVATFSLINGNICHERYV

B1: gastrin-releasing peptide (peptide)
chain: VPLPAGGGTVLTKMYPRGNHWAVGHLM
B1 displayed an EC50 of NFAT-luciferase reporter activation in CHO cells expressing hGRPR of 0.12 nM.

The values above are taken from paper PMC4452343, “Monitoring β-arrestin recruitment via β-lactamase enzyme fragment complementation: purification of peptide E as a low-affinity ligand for mammalian bombesin receptors” (PLoS ONE, 2015).
